In patent publication US11604185B2 (priority 2007, dated 2023):
Where no end group is shown, it is not given here. [ ]: non-standard residue; d: D form. The star is where a group is joined. 5FAM = O=C1OC2(c3ccc(O)cc3Oc3cc(O)ccc32)c2ccc(C(=O)*)cc21; Dabcyl = CN(C)c1ccc(N=Nc2ccc(C(=O)*)cc2)cc1; Nle = CCCC[C@H](N)C(=O)O

Experiments:
[1] = test system: BoNT/A holotoxin, complex or the non-toxic LCs; format: biochemical, Clostridium botulinum
BoNT/A complex [2] = molecular target: T1, BoNT/A complex (Clostridium botulinum, UniProt P0DPI1); format: biochemical
BoNT/A light chain = BoNT/A light chain (Clostridium botulinum, UniProt P0DPI0)
Sequence of BoNT/A light chain (P0DPI0 2-448 limits assumed): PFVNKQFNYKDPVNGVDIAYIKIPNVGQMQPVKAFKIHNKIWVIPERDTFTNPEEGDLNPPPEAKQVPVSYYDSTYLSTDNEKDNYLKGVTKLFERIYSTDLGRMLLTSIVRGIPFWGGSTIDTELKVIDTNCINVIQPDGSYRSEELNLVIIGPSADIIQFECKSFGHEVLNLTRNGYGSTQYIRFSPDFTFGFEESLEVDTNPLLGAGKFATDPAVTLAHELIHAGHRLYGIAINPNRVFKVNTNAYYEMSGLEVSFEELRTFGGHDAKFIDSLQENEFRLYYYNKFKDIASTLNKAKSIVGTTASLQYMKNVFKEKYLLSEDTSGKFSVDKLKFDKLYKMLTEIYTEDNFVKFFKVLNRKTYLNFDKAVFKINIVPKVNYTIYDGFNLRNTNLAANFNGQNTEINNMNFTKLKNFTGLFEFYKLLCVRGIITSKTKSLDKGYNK

Trypsin [3] = molecular target: T2, Trypsin (Sus scrofa, UniProt P00761); format: biochemical
BoNT/A complex [4] = molecular target: T1, BoNT/A complex
Trypsin [5] = molecular target: T2, Trypsin; format: biochemical; remark: listed apart in the source
Proteinase K = Proteinase K (Parengyodontium album, UniProt P06873); format: biochemical
BoNT/A subtypes A1 to A5 = format: biochemical, Clostridium botulinum
Thermolysin = Thermolysin (Bacillus thermoproteolyticus, UniProt P00800)
BoNT/B = BoNT/B (Clostridium botulinum, UniProt P10844)

5FAM-KIDEANQRATK(Dabcyl)[Nle]-NH2 [SEQ ID NO: 14]
cleavable by BoNT/A holotoxin, complex or non-toxic LCs alone [1]: can be cleaved

c1ccc(CN(CCN(Cc2ccccn2)Cc2ccccn2)Cc2ccccn2)nc1 [TPEN, N,N,N′,N′-Tetrakis (2-pyridylmethyl) ethylenediamine, reference compound]
effect on BoNT metalloprotease activity (BoNT/A complex [2]): suppressed BoNT metalloprotease activity

Fam-K[5-Fam]IDEANQRATK[DABCYL]Nle-amide [SEQ ID NO: 13]
cleavable by BoNT/A holotoxin, complex or non-toxic LCs alone [1]: can be cleaved

K(5FAM)IDEANQRATK(Dabcyl)[Nle]-NH2 [#201]
cleavable by BoNT/A holotoxin, complex or non-toxic LCs alone [1]: can be cleaved

K[5FAM]-IDEANQRATK[DABCYL]-Hex-CONH2 [#204]
cleavage in microcolumn ALISSA (BoNT/A light chain): does not cleave the control peptide

[4-Mu]TRIDEANQRATK[DABCYL] ({4‑Mu}-TRIDEANQRATK; not fully specified (residue 12); also: DABCYL label at C-terminal K, side chain or terminus not clear) [#111]
cleavage by trypsin (Trypsin [3]): cleaved by trypsin | cleavage by BoNT/A complex (BoNT/A complex [4]): not by BoNT/A complex

[4-Mu]TRIDEANQRATK[DABCYL]-Hex ({4‑Mu}-TRIDEANQRATK; not fully specified (residue 12, C-terminus); also: DABCYL label and hexyl (-Hex) at C-terminal K, placement not clear) [#113]
Km (Trypsin [5]): 13.3 ± 2.7 µM | kcat (Trypsin [5]): 83.90 ± 8.35 s⁻¹ | Km (Proteinase K): 4.87 ± 0.96 µM | kcat (Proteinase K): 30.64 ± 2.17 s⁻¹ | cleavage by trypsin (Trypsin [3]): cleaved by trypsin | cleaved by BoNT/A subtypes (recombinant LCs) (BoNT/A subtypes A1 to A5): None | Km (Thermolysin): 6.45 ± 0.8 µM | kcat (Thermolysin): 14.66 ± 0.71 s⁻¹ | cleavage by BoNT/A complex (BoNT/A complex [4]): not by BoNT/A complex

[5-Fam]TRIDEANQRATK[DABCYL] (5FAM-TRIDEANQRATK; not fully specified (residue 12); also: DABCYL label at C-terminal K, side chain or terminus not clear) [#110]
cleavage by trypsin (Trypsin [3]): cleaved by trypsin | cleavage by BoNT/A complex (BoNT/A complex [4]): not by BoNT/A complex

[5-Fam]TRIDEANQRATK[DABCYL]-Hex (5FAM-TRIDEANQRATK; not fully specified (residue 12, C-terminus); also: DABCYL label and hexyl (-Hex) at C-terminal K, placement not clear) [#112]
Km (Trypsin [5]): 3.75 ± 0.79 µM | kcat (Trypsin [5]): 58.72 ± 4.17 s⁻¹ | Km (Proteinase K): 3.37 ± 0.67 µM | kcat (Proteinase K): 50.73 ± 3.28 s⁻¹ | cleavage by trypsin (Trypsin [3]): cleaved by trypsin | cleaved by BoNT/A subtypes (recombinant LCs) (BoNT/A subtypes A1 to A5): None | cleavage upon addition of increasing concentrations of BoNT/A complex (BoNT/A complex [2]): only little cleavage | Km (Thermolysin): 3.58 ± 0.76 µM | kcat (Thermolysin): 24.26 ± 1.72 s⁻¹ | cleavage by BoNT/A complex (BoNT/A complex [4]): not by BoNT/A complex | cleavage by BoNT/A serotype (BoNT/A complex [4]): not cleaved | cleavage by BoNT/B serotype (BoNT/B): not cleaved
